Test results: patent publication US20150344570A1 (published 2015)

T1: FcγRIIb extracellular domain with C-terminal His tag (human, UniProt P31994 43-217)
T1 construct: extracellular domain; Expressed in FreeStyle293 cells; analyte in the SPR assay; also called FcgRIIb; 2b
T1 sequence (looked up): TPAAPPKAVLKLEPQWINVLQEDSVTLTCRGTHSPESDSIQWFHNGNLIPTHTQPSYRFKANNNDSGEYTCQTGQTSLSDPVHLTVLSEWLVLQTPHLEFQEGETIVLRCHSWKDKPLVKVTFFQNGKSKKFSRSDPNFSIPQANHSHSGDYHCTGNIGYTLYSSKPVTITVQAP

T2: FcγRIIa R (human, UniProt P12318 34-217)
T2 construct: extracellular domain; also called FcgRIIa R; FcγRIIa type R; not shown: His tag at the C terminus
T2 sequence (looked up): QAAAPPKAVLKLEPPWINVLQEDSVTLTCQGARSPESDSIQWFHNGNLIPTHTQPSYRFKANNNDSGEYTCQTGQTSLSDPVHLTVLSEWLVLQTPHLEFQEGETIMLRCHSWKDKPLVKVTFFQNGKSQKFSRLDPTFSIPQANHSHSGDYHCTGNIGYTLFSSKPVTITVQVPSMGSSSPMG

T3: FcγRIIb (human, UniProt P31994 43-217)
T3 construct: extracellular domain; also called FcgRIIb; 2b; not shown: His tag at the C terminus
T3 sequence (looked up): T1 sequence (looked up)

B1: GpH7-A5/GpH7-B3 variant G236_03V/GpL16-k0 (He Ab) (antibody, human IgG1, kappa)
heavy 1: not shown
heavy 2: not shown
light: DIVMTQSPLSLPVTPGEPASISCQASESLVHSNRNTYLHWYLQKPGQSPQLLIYKVSNRFSGVPDRFSGSGSGTDFTLKISRVEAEDVGVYYCSQNTHVPPTFGQGTKVEIERTVAAPSVFIFPPSDEQLKSGTASVVCLLNNFYPREAKVQWKVDNALQSGNSQESVTEQDSKDSTYSLSSTLTLSKADYEKHKVYACEVTHQGLSSPVTKSFNRGEC
notes: He Ab: mutation in one H chain only
B2: GpH7-A5/GpH7-B3 variant L234_11K/GpL16-k0 (He Ab) (antibody, human IgG1, kappa)
heavy 1: not shown
heavy 2: not shown
light: B1 light
notes: as for B1
B3: GpH7-A5/GpH7-B3 variant G236_04F/GpL16-k0 (He Ab) (antibody, human IgG1, kappa)
heavy 1: not shown
heavy 2: not shown
light: B1 light
notes: as for B1
B4: GpH7-A5/GpH7-B3 variant S239_12R/GpL16-k0 (antibody, human IgG1, kappa)
heavy 1: not shown
heavy 2: not shown
light: B1 light
notes: Heterodimerized anti-glypican-3 IgG1; mutation in one H chain only; also called He Ab
B5: GpH7-A5/GpH7-B3 variant L234_03V/GpL16-k0 (He Ab) (antibody, human IgG1, kappa)
heavy 1: not shown
heavy 2: not shown
light: B1 light
notes: as for B1
B6: GpH7-A5/GpH7-B3 variant L234_12R/GpL16-k0 (He Ab) (antibody, human IgG1, kappa)
heavy 1: not shown
heavy 2: not shown
light: B1 light
notes: as for B1
B7: GpH7-A5/GpH7-B3 variant S239_15Y/GpL16-k0 (antibody, human IgG1, kappa)
heavy 1: not shown
heavy 2: not shown
light: B1 light
notes: as for B4
B8: GpH7-A5/GpH7-B3 variant L234_02A/GpL16-k0 (He Ab) (antibody, human IgG1, kappa)
heavy 1: not shown
heavy 2: not shown
light: B1 light
notes: as for B1
B9: GpH7-A5/GpH7-B3 variant G236_05P/GpL16-k0 (He Ab) (antibody, human IgG1, kappa)
heavy 1: not shown
heavy 2: not shown
light: B1 light
notes: as for B1
B10: GpH7-A5/GpH7-B3 variant S239_04F/GpL16-k0 (antibody, human IgG1, kappa)
heavy 1: not shown
heavy 2: not shown
light: B1 light
notes: as for B4
B11: GpH7-A5/GpH7-B3 variant S239_16H/GpL16-k0 (antibody, human IgG1, kappa)
heavy 1: not shown
heavy 2: not shown
light: B1 light
notes: as for B4
B12: GpH7-A5/GpH7-B3 variant L234_06M/GpL16-k0 (He Ab) (antibody, human IgG1, kappa)
heavy 1: not shown
heavy 2: not shown
light: B1 light
notes: as for B1
B13: GpH7-A5/GpH7-B3 variant L235_12R/GpL16-k0 (He Ab) (antibody, human IgG1, kappa)
heavy 1: not shown
heavy 2: not shown
light: B1 light
notes: as for B1
B14: GpH7-A5/GpH7-B3 variant L234_01G/GpL16-k0 (He Ab) (antibody, human IgG1, kappa)
heavy 1: not shown
heavy 2: not shown
light: B1 light
notes: as for B1
B15: GpH7-A5/GpH7-B3 variant S239_11K/GpL16-k0 (antibody, human IgG1, kappa)
heavy 1: not shown
heavy 2: not shown
light: B1 light
notes: as for B4
B16: GpH7-A5/GpH7-B3 variant L234_05P/GpL16-k0 (He Ab) (antibody, human IgG1, kappa)
heavy 1: not shown
heavy 2: not shown
light: B1 light
notes: as for B1
B17: GpH7-A5/GpH7-B3 variant L234_07I/GpL16-k0 (He Ab) (antibody, human IgG1, kappa)
heavy 1: not shown
heavy 2: not shown
light: B1 light
notes: as for B1

Tests used:
[1] = molecular target: T4, FcγRIa extracellular domain with C-terminal His tag (human, UniProt P12314 16-292); experiment: SPR (Biacore); He/Con_1a divided by He/Con_2b (FcγRIa against FcγRIIb)
T4 construct: extracellular domain; Expressed in FreeStyle293 cells; analyte in the SPR assay; also called FcgRI; 1a
T4 sequence (P12314 16-292): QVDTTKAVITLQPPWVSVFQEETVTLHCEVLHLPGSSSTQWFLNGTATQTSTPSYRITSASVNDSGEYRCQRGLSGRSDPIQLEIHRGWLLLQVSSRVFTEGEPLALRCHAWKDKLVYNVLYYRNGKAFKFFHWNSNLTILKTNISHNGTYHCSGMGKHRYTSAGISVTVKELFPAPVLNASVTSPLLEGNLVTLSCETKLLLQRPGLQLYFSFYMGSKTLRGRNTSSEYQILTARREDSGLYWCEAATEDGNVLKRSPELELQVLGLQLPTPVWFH

[2] = molecular target: T1, FcγRIIb extracellular domain with …; experiment: SPR (Biacore), relative binding, HeCon Ab = 100
[3] = molecular target: T4, FcγRIa extracellular domain with …; experiment: SPR (Biacore), relative binding, HeCon Ab = 100
FcγRIIa R [4] = molecular target: T2, FcγRIIa R; experiment: SPR (Biacore T100); He/Con_2aR divided by He/Con_2b (FcγRIIa R over FcγRIIb)
Protocol: (§1) The heterodimerized antibodies He Abs in which one of the H chains was introduced with an alteration were assayed for their binding activities to each activating FcγR and inhibitory FcγR according to the method described in Example 4. […] The activating FcγRs in FIGS. 26, 27, 28, and 29 are FcγRIa, FcγRIIa (R), FcγRIIa (H), and FcγRIIIa, respectively.
(§2) Analysis of interaction between objective antibody and the FcγR was carried out using Biacore T100 (GE Healthcare). HBS-EP+ (GE Healthcare) was used as the running buffer, and the measurement temperature was set to 25° C. Chips produced by immobilizing the antigen peptide by the amine coupling method to a Series S Sencor Chip CM5 (GE Healthcare), or alternatively, chips produced by allowing preliminarily biotinylated antigen peptides to interact with and immobilize onto a Series S Sensor Chip SA (certified) (GE Healthcare) were used. Antibodies of interest were captured onto an antigen peptide-immobilized chip, and allowed to interact to each FcγR diluted with running buffer. To regenerate and repeatedly use the chip, the antibodies captured on the chip were washed off by reacting 10 mM glycine-HCl, pH 1.5.

FcγRIIa R [5] = molecular target: T2, FcγRIIa R; experiment: SPR (Biacore T100), antibody captured on antigen peptide chip, FcγR as analyte; binding relative to GpH7-A5/GpH7-B3/GpL16-k0 = 100
Protocol: as §1, §2

FcγRIIb = molecular target: T3, FcγRIIb; experiment: as above
Protocol: as §1, §2

| Binder | He_1a/2b (Ia/IIb) [1] [ratio] | He/Con_2b [2] | He/Con_1a [3] | He_2aR/2b (IIaR/IIb) (FcγRIIa R [4]) [ratio] | He/Con_2aR (IIaR binding) (FcγRIIa R [5]) | He/Con_2b (IIb binding) (FcγRIIb) |
| --- | --- | --- | --- | --- | --- | --- |
| B1 | 2.55 | 35.3 % of HeCon Ab (=100) | 89.9 % of HeCon Ab (=100) |  |  |  |
| B2 | 5.67 | 16.2 % of HeCon Ab (=100) | 91.8 % of HeCon Ab (=100) |  |  |  |
| B3 | 2.45 | 39.3 % of HeCon Ab (=100) | 96.4 % of HeCon Ab (=100) |  |  |  |
| B4 |  |  |  | 1.38 | 53.9 % of control | 39.1 % of control |
| B5 | 1.43 | 73.1 % of HeCon Ab (=100) | 104 % of HeCon Ab (=100) |  |  |  |
| B6 | 4.86 | 18.9 % of HeCon Ab (=100) | 91.8 % of HeCon Ab (=100) |  |  |  |
| B7 |  |  |  | 1.21 | 42.2 % of control | 34.9 % of control |
| B8 | 1.5 | 64.9 % of HeCon Ab (=100) | 97.5 % of HeCon Ab (=100) |  |  |  |
| B9 | 4.05 | 19 % of HeCon Ab (=100) | 77 % of HeCon Ab (=100) |  |  |  |
| B10 |  |  |  | 1.24 | 54.8 % of control | 44.1 % of control |
| B11 |  |  |  | 1.4 | 69.2 % of control | 49.4 % of control |
| B12 | 1.32 | 78.5 % of HeCon Ab (=100) | 104 % of HeCon Ab (=100) |  |  |  |
| B13 | 8.12 |  | 78 % of HeCon Ab (=100) |  |  |  |
| B14 | 1.9 | 50.7 % of HeCon Ab (=100) | 96.1 % of HeCon Ab (=100) |  |  |  |
| B15 |  |  |  | 1.96 | 48.5 % of control | 24.7 % of control |
| B16 | 1.37 | 72.9 % of HeCon Ab (=100) | 99.9 % of HeCon Ab (=100) |  |  |  |
| B17 | 1.27 | 80.9 % of HeCon Ab (=100) | 103 % of HeCon Ab (=100) |  |  |  |
